What was measured:
EphB4 receptor = test: Cell-based EphB4 tyrosine kinase assay in PC3 cells; parameters: species or system human; details: Ephrin B2-Fc ligand preincubated with protein
Procedure: All four proteins were also tested for their ability to block ligand-dependent dimerization and activation of Eph B4 receptor kinase in PC3 cells. The PC3 human prostate cancer cell line is known to express elevated levels of human Eph B4. Stimulation of PC3 cells with Ephrin B2 IgG Fc fusion protein leads to a rapid induction of tyrosine phosphorylation of the receptor. However, preincubation of the ligand with GCF2, GCF1 or GC, but not CF2 proteins suppresses subsequent EphB4 autophosphorylation.
The human prostate carcinoma cell line PC3 cells were maintained in RPMI medium with 10% dialyzed fetal calf serum and 1% penicillin/streptomycin/neomycin antibiotics mix. Cells were maintained at 37° C. in a humidified atmosphere of 5% CO2/95% air. Typically, cells were grown in 60 mm dishes until confluency and were either treated with mouse Ephrin B2-Fc fusion at 1 μg/ml in RPMI for 10 min to activate EphB4 receptor or plain medium as a control. To study the effect of different derivatives of soluble EphB4 ECD proteins on EphB4 receptor activation, three sets of cells were used. In the first set, cells were treated with various proteins (5 proteins; GC, GCF1, GCF2, GCF2-F, CF2) at 5 μg/ml for 20 min. In the second set of cells, prior to application, proteins were premixed with ephrinB2-Fc at 1:5 (EphB4 protein:B2-Fc) molar ratio, incubated for 20 min and applied on cells for 10 min. In the third set of cells, cells were first treated with the proteins for 20 min at 5 μg/ml, media was replaced with fresh media containing 1 μg/ml of EphrinB2-Fc and incubated for another 10 min.
After the stimulation, cells were immediately harvested with protein extraction buffer containing 20 mM Tris-HCl, pH 7.4, 150 mM NaCl, 1% (v/v) Triton X100, 1 mM EDTA, 1 mM PMSF, 1 mM Sodium vanadate. Protein extracts were clarified by centrifugation at 14,000 rpm for 20 min at 4° C. Clarified protein samples were incubated overnight with protein A/G coupled agarose beads pre-coated with anti-EphB4 monoclonal antibodies. The IP complexes were washed twice with the same extraction buffer containing 0.1% Triton X100. The immunoprecipitated proteins were solubilized in 1×SDS-PAGE sample loading buffer and separated on 10% SDS-PAGE. For EphB4 receptor activation studies, electroblotted membrane was probed with anti-pTyr specific antibody 4G10 at 1:1000 dilution followed by Protein G-HRP conjugate at 1:5000 dilutions.

EphrinB2 = biological target: T1, EphrinB2 (Homo sapiens, UniProt P52799); test: Ephrin B2-AP binding to immobilized EphB4EC proteins; details: B4 proteins immobilized on Ni2+-resin or nitrocellulose
T1 construct: protein fusion of Ephrin B2 ectodomain with placental alkaline phosphatase
Procedure: 10 μl of Ni-NTA-Agarose were incubated in microcentrifuge tubes with 50 μl of indicated amount of B4ECv3 diluted in binding buffer BB (20 mM Tris-HCl, 0.15 M NaCl, 0.1% bovine serum albumin pH 8) After incubation for 30 min on shaking platform, Ni-NTA beads were washed twice with 1.4 ml of BB, followed by application of 50 μl of B2-AP in the final concentration of 50 nM. Binding was performed for 30 min on shaking platform, and then tubes were centrifuged and washed one time with 1.4 ml of BB. Amount of precipitated AP was measured colorimetrically after application of PNPP.
To confirm ability of the purified recombinant proteins to bind Ephrin B2, they were tested in an in vitro binding assay. As expected, GC, GCF1 and GCF2, but not CF2 are binding the cognate ligand Ephrin B2 as confirmed by interaction between Ephrin B2-alkaline phosphatase (Ephrin B2-AP) fusion protein with the B4 proteins immobilized on Ni^2+-resin or on nitrocellulose membrane (FIG. 17).

T1 sequence (P52799 28-229 limits assumed): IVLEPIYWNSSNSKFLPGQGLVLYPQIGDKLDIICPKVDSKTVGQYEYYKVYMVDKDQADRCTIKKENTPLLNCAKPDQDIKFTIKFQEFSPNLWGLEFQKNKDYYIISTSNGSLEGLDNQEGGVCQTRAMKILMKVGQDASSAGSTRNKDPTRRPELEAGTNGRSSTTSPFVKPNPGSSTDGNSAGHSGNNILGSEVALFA

binding the cognate ligand Ephrin B2 (EphrinB2)	Molecule	EphB4 autophosphorylation (EphB4 receptor)
not	CF2: EphB4 ECD version with deleted globular domain, SEQ ID NO:15 (protein, Recombinant B4-CF2) MELRVLLCWASLAAALEETLLNTKLETQLTVNLTRFPETVPRELVVPVAGSCVVDAVPAPGPSPSLYCREDGQWAEQPVTGCSCAPGFEAAEGNTKCRACAQGTFKPLSGEGSCQPCPANSHSNTIGSAVCQCRVGYFRARTDPRGAPCTTPPSAPRSVVSRLNGSSLHLEWSAPLESGGREDLTYALRCRECRPGGSCAPCGGDLTFDPGPRDLVEPWVVVRGLRPDFTYTFEVTALNGVSSLATGPVPFEPVNVTTDREVPPAVSDIRVTRSSPSSLSLAWAVPRAPSGAWLDYEVKYHEKGAEGPSSVRFLKTSENRAELRGLKRGASYLVQVRARSEAGYGPFGQEHHSQTQLDESEGWREQGGRSSLEGPRFEGKPIPNPLLGLDSTRTGHHHHHH	not
binding	GCF2: recombinant protein containing the complete ectopic part of EphB4, 6xHis tagged, SEQ ID NO:14 (protein, Recombinant FL-hB4EC) MELRVLLCWASLAAALEETLLNTKLETADLKWVTFPQVDGQWEELSGLDEEQHSVRTYEVCEVQRAPGQAHWLRTGWVPRRGAVHVYATLRFTMLECLSLPRAGRSCKETFTVFYYESDADTATALTPAWMENPYIKVDTVAAEHLTRKRPGAEATGKVNVKTLRLGPLSKAGFYLAFQDQGACMALLSLHLFYKKCAQLTVNLTRFPETVPRELVVPVAGSCVVDAVPAPGPSPSLYCREDGQWAEQPVTGCSCAPGFEAAEGNTKCRACAQGTFKPLSGEGSCQPCPANSHSNTIGSAVCQCRVGYFRARTDPRGAPCTTPPSAPRSVVSRLNGSSLHLEWSAPLESGGREDLTYALRCRECRPGGSCAPCGGDLTFDPGPRDLVEPWVVVRGLRPDFTYTFEVTALNGVSSLATGPVPFEPVNVTTDREVPPAVSDIRVTRSSPSSLSLAWAVPRAPSGAWLDYEVKYHEKGAEGPSSVRFLKTSENRAELRGLKRGASYLVQVRARSEAGYGPFGQEHHSQTQLDESEGWREQGSKRAILQIEGKPIPNPLLGLDSTRTGHHHHHH	suppresses
